In publication PMC5911420 (DNA repair, 2018):
Read-outs that look alike come from different tables or passages of the source.

Assays:
Test in all cases: SEC-MALS
[1] = target: T1, full-length NEIL1 DNA glycosylase, His-tagged (human, UniProt Q96FI4 1-390)
SEC-MALS = target: the molecule itself
[2] = target: T1, full-length NEIL1 DNA glycosylase, …; remark: listed apart in the source

T1 sequence (Q96FI4 whole entry): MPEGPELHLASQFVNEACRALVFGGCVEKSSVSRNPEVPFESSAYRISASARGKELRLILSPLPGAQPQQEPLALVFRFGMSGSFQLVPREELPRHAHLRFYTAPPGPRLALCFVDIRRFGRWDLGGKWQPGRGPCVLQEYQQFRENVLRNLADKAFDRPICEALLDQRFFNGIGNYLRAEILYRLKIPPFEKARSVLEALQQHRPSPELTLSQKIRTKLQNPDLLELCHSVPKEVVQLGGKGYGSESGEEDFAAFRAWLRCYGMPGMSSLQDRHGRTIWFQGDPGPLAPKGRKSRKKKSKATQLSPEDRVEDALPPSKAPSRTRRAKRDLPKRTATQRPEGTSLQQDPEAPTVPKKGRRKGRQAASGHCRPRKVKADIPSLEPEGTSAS

stoichiometry N [1]: 1 mtSSB tetramer per NEIL1 (with one DNA) | stoichiometry N [2]: 1 mtSSB monomer per NEIL1
B1: human mitochondrial single-stranded DNA binding protein, purified recombinant (natural protein, UniProt Q04837 17-148, looked up)
chain: ESETTTSLVLERSLNRVHLLGRVGQDPVLRQVEGKNPVTIFSLATNEMWRSGDSEVYQLGDVSQKTTWHRISVFRPGLRDVAYQYVKKGSRIYLEGKIDYGEYMDKNNVRRQATTIIADNIIFLSDQTKEKE
stoichiometry N (SEC-MALS): 4
